One test deals with T1, Human Siglec-5 (human, UniProt O15389 17-551).
T1 construct: Expressed on transfected CHO cells; also called HuSiglec-5
T1 sequence: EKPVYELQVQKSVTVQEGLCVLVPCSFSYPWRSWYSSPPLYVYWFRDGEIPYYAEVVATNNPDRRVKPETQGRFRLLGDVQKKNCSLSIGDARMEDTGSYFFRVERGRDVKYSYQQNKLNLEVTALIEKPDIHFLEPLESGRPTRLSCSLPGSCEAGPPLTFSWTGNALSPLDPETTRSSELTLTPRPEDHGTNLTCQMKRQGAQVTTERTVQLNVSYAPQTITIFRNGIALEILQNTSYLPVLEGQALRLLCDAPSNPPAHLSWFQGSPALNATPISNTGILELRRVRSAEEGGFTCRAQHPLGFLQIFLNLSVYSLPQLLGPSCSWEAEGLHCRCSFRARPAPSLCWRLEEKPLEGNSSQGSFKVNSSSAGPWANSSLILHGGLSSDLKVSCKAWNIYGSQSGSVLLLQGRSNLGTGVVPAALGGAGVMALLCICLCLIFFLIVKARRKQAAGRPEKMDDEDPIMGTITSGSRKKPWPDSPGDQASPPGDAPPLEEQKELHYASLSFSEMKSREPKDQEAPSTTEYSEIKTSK
Put plainly: flow cytometry, CHO transfectants. In general terms: Flow cytometry measures light scatter and fluorescence of single cells or particles in a stream.

Another test concerns the target T2, Human Siglec-3 (human, UniProt P20138 18-364).
T2 construct: Expressed on transfected CHO cells; also called HuSiglec-3; CD33
Put plainly: flow cytometry, CHO transfectants.

For the next test, the target named is T3, Human Siglec-6 (human, UniProt O43699 27-453).
T3 construct: Expressed on transfected CHO cells; also called HuSiglec-6
Nature of the test: flow cytometry, CHO transfectants.

The target of another test is T4, Human Siglec-8 (human, UniProt Q9NYZ4 17-499).
T4 construct: Expressed on transfected CHO cells; also called HuSiglec-8
Nature of the test: flow cytometry, CHO transfectants.

The target of a further test is T5, Human Siglec-10 (human, UniProt Q96LC7 17-697).
T5 construct: Expressed on transfected CHO cells; also called HuSiglec-10
T5 sequence: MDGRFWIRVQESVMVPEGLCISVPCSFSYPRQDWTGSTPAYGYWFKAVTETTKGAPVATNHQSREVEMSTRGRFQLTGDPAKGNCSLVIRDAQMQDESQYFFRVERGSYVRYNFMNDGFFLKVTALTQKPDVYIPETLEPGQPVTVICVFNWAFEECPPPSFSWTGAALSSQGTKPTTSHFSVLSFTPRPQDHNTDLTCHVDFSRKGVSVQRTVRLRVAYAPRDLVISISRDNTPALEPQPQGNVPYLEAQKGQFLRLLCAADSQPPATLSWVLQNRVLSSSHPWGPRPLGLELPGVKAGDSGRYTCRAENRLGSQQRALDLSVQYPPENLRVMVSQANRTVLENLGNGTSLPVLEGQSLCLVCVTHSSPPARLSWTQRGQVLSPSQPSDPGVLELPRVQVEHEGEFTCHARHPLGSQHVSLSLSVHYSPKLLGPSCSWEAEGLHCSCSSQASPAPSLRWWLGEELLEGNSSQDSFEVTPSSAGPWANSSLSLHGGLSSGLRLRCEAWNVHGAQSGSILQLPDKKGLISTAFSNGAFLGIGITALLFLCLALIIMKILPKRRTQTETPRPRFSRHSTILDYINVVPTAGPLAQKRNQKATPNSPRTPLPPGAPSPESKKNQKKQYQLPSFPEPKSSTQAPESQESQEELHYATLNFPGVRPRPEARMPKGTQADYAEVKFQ
Put plainly: flow cytometry, CHO transfectants.

Another test has as its target T6, Human Siglec-11 (human, UniProt Q96RL6 29-698).
T6 construct: Expressed on transfected CHO cells; also called HuSiglec-11
T6 sequence: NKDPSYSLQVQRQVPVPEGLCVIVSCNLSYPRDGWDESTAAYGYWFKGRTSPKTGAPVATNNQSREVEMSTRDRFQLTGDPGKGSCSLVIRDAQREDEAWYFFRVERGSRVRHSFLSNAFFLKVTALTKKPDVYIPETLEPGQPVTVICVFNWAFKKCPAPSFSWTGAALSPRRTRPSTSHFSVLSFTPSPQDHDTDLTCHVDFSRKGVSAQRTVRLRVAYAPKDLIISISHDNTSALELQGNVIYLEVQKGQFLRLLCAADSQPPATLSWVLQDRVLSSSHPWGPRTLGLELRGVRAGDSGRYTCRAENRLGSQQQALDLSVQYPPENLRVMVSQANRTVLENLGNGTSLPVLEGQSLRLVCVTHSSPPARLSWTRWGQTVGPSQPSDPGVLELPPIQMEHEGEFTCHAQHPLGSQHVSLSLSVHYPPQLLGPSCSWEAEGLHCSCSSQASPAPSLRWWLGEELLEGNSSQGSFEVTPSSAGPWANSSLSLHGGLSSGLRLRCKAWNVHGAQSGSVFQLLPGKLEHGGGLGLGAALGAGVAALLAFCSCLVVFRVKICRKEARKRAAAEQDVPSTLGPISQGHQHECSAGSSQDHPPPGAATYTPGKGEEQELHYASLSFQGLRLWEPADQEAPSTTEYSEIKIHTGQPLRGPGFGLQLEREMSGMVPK
Put plainly: flow cytometry, CHO transfectants.

The target of the next test is T7, Human Siglec-12 (human, UniProt Q96PQ1 19-595).
T7 construct: Expressed on transfected CHO cells; also called HuSiglec-12
Nature of the test: flow cytometry, CHO transfectants.

In a further test the target is T8, Human Siglec-9 mutant M2 (human, UniProt Q9Y336 18-463).
T8 construct: Expressed on HEK293T cells; also called Mutant 2
Nature of the test: flow cytometry, HEK293T transfectants.

Another test addresses T9, Human Siglec-9 mutant M3 (human, UniProt Q9Y336 18-463).
T9 construct: Expressed on HEK293T cells; also called Mutant 3
Nature of the test: flow cytometry, HEK293T transfectants.

The next test concerns the target T10, Human Siglec-9 mutant M5 (human, UniProt Q9Y336 18-463).
T10 construct: Expressed on HEK293T cells; also called Mutant 5
Nature of the test: flow cytometry, HEK293T transfectants.

Test [1] has as its target T11, Human Siglec-9 mutant M15 (human, UniProt Q9Y336 18-463).
T11 construct: Expressed on HEK293T cells; also called Mutant 15
Nature of the test: flow cytometry, HEK293T transfectants.

A further test concerns the target T12, Human Siglec-9 mutant M6 (human, UniProt Q9Y336 18-463).
T12 construct: Expressed on HEK293T cells; also called Mutant 6
Put plainly: flow cytometry, HEK293T transfectants.

Test [2] addresses T13, Human Siglec-9 N-terminal V-set Ig-like domain (human).
T13 construct: expressed on HEK293T cells
Put plainly: flow cytometry, HEK293T cells expressing single Siglec-9 domains.

Test [3] deals with T14, Human Siglec-9 mutant M14 (human, UniProt Q9Y336 18-463).
T14 construct: Expressed on HEK293T cells; also called Mutant 14
Nature of the test: flow cytometry, HEK293T transfectants.

T9 sequence (Q9Y336 other isoform, or with tags, fused parts or gaps mutant): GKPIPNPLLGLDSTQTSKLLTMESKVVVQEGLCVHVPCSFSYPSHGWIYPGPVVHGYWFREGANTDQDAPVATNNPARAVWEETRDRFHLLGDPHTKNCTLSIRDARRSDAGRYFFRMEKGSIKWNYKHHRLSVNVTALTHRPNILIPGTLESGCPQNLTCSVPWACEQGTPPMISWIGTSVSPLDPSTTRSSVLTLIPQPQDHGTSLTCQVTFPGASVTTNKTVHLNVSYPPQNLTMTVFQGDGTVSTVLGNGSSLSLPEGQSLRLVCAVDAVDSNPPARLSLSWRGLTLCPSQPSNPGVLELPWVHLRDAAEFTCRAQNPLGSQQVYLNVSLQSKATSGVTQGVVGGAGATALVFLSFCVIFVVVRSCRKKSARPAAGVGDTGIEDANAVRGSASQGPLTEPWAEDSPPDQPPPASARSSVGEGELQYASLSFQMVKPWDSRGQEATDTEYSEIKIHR
T2 sequence (P20138 18-364 R69G): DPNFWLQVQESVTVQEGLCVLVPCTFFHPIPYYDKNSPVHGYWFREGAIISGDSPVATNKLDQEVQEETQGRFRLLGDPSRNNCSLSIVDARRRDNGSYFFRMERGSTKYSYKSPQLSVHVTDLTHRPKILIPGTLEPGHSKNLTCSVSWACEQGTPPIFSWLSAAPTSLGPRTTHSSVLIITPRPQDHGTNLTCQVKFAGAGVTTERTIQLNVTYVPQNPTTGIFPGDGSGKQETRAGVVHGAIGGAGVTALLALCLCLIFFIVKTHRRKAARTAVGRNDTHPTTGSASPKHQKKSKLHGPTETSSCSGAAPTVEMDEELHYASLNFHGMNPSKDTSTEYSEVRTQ
T11 sequence (Q9Y336 other isoform, or with tags, fused parts or gaps mutant): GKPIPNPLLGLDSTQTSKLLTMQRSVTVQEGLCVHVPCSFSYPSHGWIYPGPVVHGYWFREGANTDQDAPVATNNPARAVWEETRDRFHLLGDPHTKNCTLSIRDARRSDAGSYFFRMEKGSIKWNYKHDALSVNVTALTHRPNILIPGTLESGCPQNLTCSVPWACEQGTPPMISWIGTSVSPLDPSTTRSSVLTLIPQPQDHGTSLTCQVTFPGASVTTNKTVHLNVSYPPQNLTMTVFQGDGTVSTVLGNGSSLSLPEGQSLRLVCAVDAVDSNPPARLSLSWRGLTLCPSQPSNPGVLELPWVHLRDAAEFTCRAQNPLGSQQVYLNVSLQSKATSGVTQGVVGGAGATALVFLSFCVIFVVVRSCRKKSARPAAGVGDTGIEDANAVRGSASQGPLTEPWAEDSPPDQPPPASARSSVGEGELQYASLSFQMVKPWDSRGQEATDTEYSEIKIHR
T3 sequence (O43699 other isoform, or with tags, fused parts or gaps): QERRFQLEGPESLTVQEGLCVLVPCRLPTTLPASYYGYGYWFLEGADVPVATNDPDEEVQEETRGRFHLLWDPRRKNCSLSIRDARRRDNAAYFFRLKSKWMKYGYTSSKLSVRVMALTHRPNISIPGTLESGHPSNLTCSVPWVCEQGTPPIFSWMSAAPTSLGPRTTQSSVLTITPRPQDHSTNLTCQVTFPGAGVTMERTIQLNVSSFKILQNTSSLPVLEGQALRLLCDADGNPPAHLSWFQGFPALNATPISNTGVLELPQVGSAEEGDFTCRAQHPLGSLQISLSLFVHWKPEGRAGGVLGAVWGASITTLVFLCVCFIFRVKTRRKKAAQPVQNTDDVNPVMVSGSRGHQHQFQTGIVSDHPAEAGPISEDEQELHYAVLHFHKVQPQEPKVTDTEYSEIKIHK
T7 sequence (Q96PQ1 19-595): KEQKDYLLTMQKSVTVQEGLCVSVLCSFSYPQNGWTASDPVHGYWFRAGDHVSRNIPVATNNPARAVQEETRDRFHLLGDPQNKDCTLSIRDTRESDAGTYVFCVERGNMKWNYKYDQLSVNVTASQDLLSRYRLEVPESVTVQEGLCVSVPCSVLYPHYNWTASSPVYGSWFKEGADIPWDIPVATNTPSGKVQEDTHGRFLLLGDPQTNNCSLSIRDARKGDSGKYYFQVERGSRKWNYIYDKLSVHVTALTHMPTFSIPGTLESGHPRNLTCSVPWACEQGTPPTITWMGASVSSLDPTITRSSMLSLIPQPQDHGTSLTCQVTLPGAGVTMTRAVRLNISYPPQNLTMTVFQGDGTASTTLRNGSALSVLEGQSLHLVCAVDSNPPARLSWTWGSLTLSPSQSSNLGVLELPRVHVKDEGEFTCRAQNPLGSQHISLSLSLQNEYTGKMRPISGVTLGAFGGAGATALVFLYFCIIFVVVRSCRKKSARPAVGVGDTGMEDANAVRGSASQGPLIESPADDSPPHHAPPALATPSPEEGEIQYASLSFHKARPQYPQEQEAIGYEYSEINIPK
T4 sequence (Q9NYZ4 17-499): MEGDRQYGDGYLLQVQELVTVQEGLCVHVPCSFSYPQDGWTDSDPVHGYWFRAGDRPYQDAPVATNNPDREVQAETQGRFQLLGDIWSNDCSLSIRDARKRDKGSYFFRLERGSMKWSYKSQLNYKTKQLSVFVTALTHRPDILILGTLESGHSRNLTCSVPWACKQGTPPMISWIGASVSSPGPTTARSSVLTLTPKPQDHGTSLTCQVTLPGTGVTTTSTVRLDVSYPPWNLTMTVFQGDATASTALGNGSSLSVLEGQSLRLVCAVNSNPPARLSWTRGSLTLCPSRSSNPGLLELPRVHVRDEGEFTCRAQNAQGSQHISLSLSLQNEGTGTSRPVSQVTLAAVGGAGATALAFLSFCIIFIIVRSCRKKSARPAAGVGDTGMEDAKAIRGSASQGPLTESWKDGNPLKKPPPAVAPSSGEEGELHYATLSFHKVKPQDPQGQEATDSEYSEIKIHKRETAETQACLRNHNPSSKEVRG
T12 sequence (Q9Y336 other isoform, or with tags, fused parts or gaps mutant): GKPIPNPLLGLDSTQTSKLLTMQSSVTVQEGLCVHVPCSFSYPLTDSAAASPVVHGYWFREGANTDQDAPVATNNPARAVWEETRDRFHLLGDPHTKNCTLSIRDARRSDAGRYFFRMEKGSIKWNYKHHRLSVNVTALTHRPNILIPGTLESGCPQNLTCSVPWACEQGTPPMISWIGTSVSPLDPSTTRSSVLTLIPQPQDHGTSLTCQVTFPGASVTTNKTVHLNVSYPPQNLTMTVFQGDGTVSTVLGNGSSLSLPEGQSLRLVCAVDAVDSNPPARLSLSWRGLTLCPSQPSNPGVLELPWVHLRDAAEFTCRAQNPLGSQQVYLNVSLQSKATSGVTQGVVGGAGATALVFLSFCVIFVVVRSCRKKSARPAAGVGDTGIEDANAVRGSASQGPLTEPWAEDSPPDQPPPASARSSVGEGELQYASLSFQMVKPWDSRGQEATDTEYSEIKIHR
T14 sequence (Q9Y336 other isoform, or with tags, fused parts or gaps mutant): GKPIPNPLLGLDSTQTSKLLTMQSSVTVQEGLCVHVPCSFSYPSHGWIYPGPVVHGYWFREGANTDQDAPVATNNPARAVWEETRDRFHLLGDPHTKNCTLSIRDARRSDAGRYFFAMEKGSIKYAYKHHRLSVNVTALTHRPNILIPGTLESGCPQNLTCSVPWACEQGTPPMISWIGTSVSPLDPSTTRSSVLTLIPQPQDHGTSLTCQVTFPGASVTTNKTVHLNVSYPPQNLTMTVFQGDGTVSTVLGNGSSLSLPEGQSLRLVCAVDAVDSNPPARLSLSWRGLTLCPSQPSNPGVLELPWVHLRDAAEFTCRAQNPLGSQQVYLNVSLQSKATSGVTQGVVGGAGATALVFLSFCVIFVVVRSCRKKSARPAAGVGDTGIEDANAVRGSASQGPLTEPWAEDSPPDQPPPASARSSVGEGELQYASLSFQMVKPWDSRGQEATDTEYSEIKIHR

B1: mAbA (antibody, human IgG1, V domains shown)
VH: QVQLQQPGAELVKPGSPVKLSCKASYFTFTSYWMHWVRQRPGQGLEWIGEINPSNGHTNYNEKFESKATLTVDRSSSTAYMQLSSLTSEDSAVFYCANGVESYDFDDALDYWGQGTSVTVSS
VL: DIQMTQTTSSLSASLGDRVTISCRASQDINNYLNWYQQKPDGTIKLLIYYTSRLHSGVPSRFSGSGSGTDYSLTINNLEQEDIATYFCQQGNTLPFTFGGGTKLEIK
For B1, the binding result with Human Siglec-5, in the test with Human Siglec-3, with Human Siglec-6, with Human Siglec-8, with Human Siglec-10 and with Human Siglec-11 was “no binding” in each case. Also, the binding result with Human Siglec-12 is on record as “no binding”; with Human Siglec-9 mutant M2, “binds”; with Human Siglec-9 mutant M3 it was “binds”; with Human Siglec-9 mutant M5 it was “binds”; in test [1], “binds”; with Human Siglec-9 mutant M6 it was “binds”. In addition, in [2], the binding result is “binds”.

B2: mAb4 (antibody, human IgG1, V domains shown)
VH: DVQLVESGGDLVKPGGSLKLSCAASGFAFSSYDMSWVRQSPEKRLEWIAHIGSGGGNIYYPDTVKGRFTISRDNAKNTLYLQMRSLKSEDTAMYYCARLIFTTGFYGMDYWGQGTSVTVSS
VL: DIQMTQTTSSLSASLGDRVTISCRASQDISSYLNWYQQKPDGTIKLLIYYTSRLHSGVPSRFSGSGSGTDYSLTISNLDQDDIATYFCQQGNALPWTFGGGTKLEIK
As for B2, the binding result with Human Siglec-5, with Human Siglec-3, in the test with Human Siglec-6, with Human Siglec-8, in the test with Human Siglec-10 and with Human Siglec-11 was “no binding” throughout. Besides, the binding result in the test with Human Siglec-12 is “no binding”.

B3: mAbB (antibody, human IgG1, V domains shown)
VH: QVQLQQPGAELVKPGASVKLSCKASVYTFTSYWMHWVKQRPGQGLEWIGEINPSNGHTNYNEKFKTKAKLTVDKSSSTAYMQLSSLTSEDSAVYFCANGVETYDFDDAMDYWGQGTSVTVSS
VL: DIQMTQTTSSLSASLGDRVTISCRASQDINNYLNWYQQKPDGTVKLLIYFTSRLHSGVPSRFSGSGSGTDYSLTISNLEQEDIATYFCQQGDTFPFTFGGGTKLEIK
With B3, the binding result with Human Siglec-5, with Human Siglec-3, in the test with Human Siglec-6, in the test with Human Siglec-8, with Human Siglec-10 and with Human Siglec-11 was “no binding” each time. The binding result with Human Siglec-12 is “no binding”; in the test with Human Siglec-9 mutant M2 it was “binds”; with Human Siglec-9 mutant M3, “binds”; with Human Siglec-9 mutant M5, “binds”; in test [1] it was “binds”; in the test with Human Siglec-9 mutant M6, “binds”. Also, the binding result in test [2] is reported as “binds”.

B4: mAb5 (antibody, human IgG1, V domains shown)
VH: EIQLQQSGPELEKPGASVKISCKASGYSFSDYNMNWVKQSNGKSLEWIGNIDPYYGATSYNQRFKGKATLTVDKSSSTAYMQLKSLTSEDSAVYYCARGDSLFAYWGHGTLVTVSA
VL: DIVMTQSQEFMSTSLGDRVSVTCKASQNVGTNVAWYQQKPGQSPKALLYSASSRYSGVPDRFTGSGSGTDFTLTISNVQSEDLAEYFCQQYITYPYTFGGGTKLEIK
For the molecule B4, the binding result with Human Siglec-5, in the test with Human Siglec-3, with Human Siglec-6, with Human Siglec-8, with Human Siglec-10 and with Human Siglec-11 was “no binding” each time. Also, the binding result with Human Siglec-12 was “no binding”.

B5: mAb6 (antibody, human IgG1, V domains shown)
VH: EIQLQQSGPELEKPGASVKISCKASGYSFSDYNMNWVKQSNGKSLEWIGNIDPYYGATSYNQRFKGKATLTVDKSSSTAYMQLKSLTSEDSAVYYCARGDSLFAYWGQGTLVTVSA
VL: DIVMTQSQEFMSTSLGDRVSVTCKASQNVGTNVAWYQQKPGQSPKALLYSASSRYSGVPDRFTGSGSGTDFTLTINNMQSEDLAEYFCQQYITYPYTFGGGTKLEIK
As to B5, the binding result with Human Siglec-5, in the test with Human Siglec-3, with Human Siglec-6, in the test with Human Siglec-8, with Human Siglec-10 and with Human Siglec-11 was “no binding” each time. For the same molecule, the binding result with Human Siglec-12 is reported as “no binding”.

B6: mAbD (antibody, human IgG1, V domains shown)
VH: QIQLVQSGPELKKPGETVKISCKASGYTFTDYSMHWVKQAPGKGLKWMGWIITETGEPTYADDFRGRFAFSLETSANTAYLQINNLKNEDTATYFCARDFDGYWGQGTTLTVSS
VL: DILMTQSPASLSASVGETVTITCRASENIYSYLAWYQQKRGKSPQFLVYNAKTLTEGVPSRFRGSGSGTQFSLKINSLQPEDFGTYYCQHHYGFPWTFGGGTKLEIK
On to B6, for which the binding result with Human Siglec-5, in the test with Human Siglec-3, with Human Siglec-6, with Human Siglec-8, with Human Siglec-10 and with Human Siglec-11 was “no binding” in each case. The binding result with Human Siglec-12 is recorded as “no binding”; with Human Siglec-9 mutant M2, “binds”; with Human Siglec-9 mutant M3, “binds”; in the test with Human Siglec-9 mutant M5 it was “binds”; in test [3], “binds”; in test [1] it was “binds”. Further, the binding result in test [2] is recorded as “binds”.

The values above are taken from patent US20200369765A1 (INNATE PHARMA, published 2020).
